# Measured values as given in article PMC13367182.
# Key:
# [1] = molecular target: mononucleosome with deletion of the histone H4 tail (human) (UniProt P04908); experiment: AlphaScreen or HTRF
# [2] = molecular target: mononucleosome with deletion of the histone H3 tail (human) (UniProt P04908); experiment: AlphaScreen or HTRF
substance,measurement,setting,value
HIV-1 intasome assembled in the presence of LEDGF/p75 (from UniProt O75475 1-530) (complex),decrease in the bridging signal against native nucleosomes,[1],20%
same,decrease in the bridging signal against native nucleosomes,[2],20%
